Laboratory results from paper PMC3402474 (PLoS ONE, 2012).
Numbering of substitutions follows the chain as printed.

B1: Bmh2 (natural protein, S. cerevisiae, UniProt P34730 1-273, looked up)
chain: MSQTREDSVYLAKLAEQAERYEEMVENMKAVASSGQELSVEERNLLSVAYKNVIGARRASWRIVSSIEQKEESKEKSEHQVELIRSYRSKIETELTKISDDILSVLDSHLIPSATTGESKVFYYKMKGDYHRYLAEFSSGDAREKATNSSLEAYKTASEIATTELPPTHPIRLGLALNFSVFYYEIQNSPDKACHLAKQAFDDAIAELDTLSEESYKDSTLIMQLLRDNLTLWTSDISESGQEDQQQQQQQQQQQQQQQQQAPAEQTQGEPTK
notes: also called yeast 14-3-3 protein Bmh2; recombinant Bmh2
B2: ammodytoxin A (enzyme)
chain: SLLEFGMMILGETGKNPLTSYSFYGCYCGVGGKGTPKDATDRCCFVHDCCYGNLPDCSPKTDRYKYHRENGAIVCGKGTSCENRICECDRAAAICFRKNLKTYNYIYRNYPDFLCKKESEKC
B3: ammodytoxin C (enzyme)
chain: B2 chain with F113I, K117E
notes: also called AtxC
B4: ammodytoxin B (enzyme)
chain: B2 chain with Y105H, R108M, N109Y
notes: also called AtxB
B5: ammodytin L (natural protein)
chain: SVIEFGKMIQEETDKNPLTSYSFYGCHCGLGNKGKPKDATDRCCFVHSCCYAKLPDCSPKTNRYEYHRENGAIVCGSSTPCKKQICECDRAAAICFRENLKTYNKKYKVYLRFKCKGVSEKC
B6: Bmh1 (natural protein, S. cerevisiae, UniProt P29311 1-267, looked up)
chain: MSTSREDSVYLAKLAEQAERYEEMVENMKTVASSGQELSVEERNLLSVAYKNVIGARRASWRIVSSIEQKEESKEKSEHQVELICSYRSKIETELTKISDDILSVLDSHLIPSATTGESKVFYYKMKGDYHRYLAEFSSGDAREKATNASLEAYKTASEIATTELPPTHPIRLGLALNFSVFYYEIQNSPDKACHLAKQAFDDAIAELDTLSEESYKDSTLIMQLLRDNLTLWTSDMSESGQAEDQQQQQQHQQQQPPAAAEGEAPK
notes: also called yeast 14-3-3 protein Bmh1; recombinant Bmh1

Key:
dynamic light scattering = biological target: the molecule itself; experiment: dynamic light scattering
Bmh2 [1] = biological target: B1; experiment: SPR; details: both partners purified
Bmh1 [2] = biological target: B6; experiment: SPR; details: both partners purified
Bmh2 [3] = biological target: B1; experiment: SPR; BiacoreX, 25°C; recombinant Bmh1 or Bmh2 in 50 mM Tris (pH 7.5), 150 mM NaCl, 0.1 mM CaCl2 immobilized to CM5 chips; 2 µM sPLA2 injected; dissociation monitored 180 s; responses corrected for surface density and molecular weights; details: both partners purified
Bmh1 [4] = biological target: B6; experiment: as above; details: both partners purified

B1
stoichiometry N (dynamic light scattering): 2

B2
binding result (Bmh2 [1]): binds | binding result (Bmh1 [2]): binds

B3
binding result (Bmh2 [3]): binds | binding result (Bmh1 [4]): binds

B4
binding result (Bmh2 [3]): binds | binding result (Bmh1 [4]): binds

B5
binding result (Bmh2 [1]): binds | binding result (Bmh1 [2]): binds

B6
stoichiometry N (dynamic light scattering): 2
